1 substance from article PMC3711486 can be followed below.

The target in this assay is unlabeled actin filaments (chicken skeletal muscle actin) (chicken) (UniProt P68139). The experiment in a line: other fluorescence titration.

Turning to “S. pombe Arp2/3 complex labeled with pyrene (pyrenyl-Arp2/3 complex) (from UniProt Q9UUJ1 1-390; O14241 1-317; Q92352 1-168)”, the KDR with filaments 10% saturated with cofilin came out at 0.66 µM, the KDR with filaments 20% saturated with cofilin was 0.87 µM, the KDR with filaments 30% saturated with cofilin worked out at 1.5 µM and the KDR with filaments 45% saturated with cofilin is 2.5 µM. For the same substance, the percent of Arp2/3 complex bound, filaments more than 80% saturated with cofilin was 5%.
